Several values for one entry are separate records, joined by “and”; a condition that tells them apart may be missing. Equal entries are not always repeated.
B1: sugarcane recombinant GNA (Galanthus nivalis agglutinin, snowdrop lectin LECGNA2) (natural protein, UniProt P30617 20-128, looked up)
chain: DNILYSGETLSTGEFLNYGSFVFIMQEDCNLVLYDVDKPIWATNTGGLSRSCFLSMQTDGNLVVYNPSNKPIWASNTGGQNGNYVCILQKDRNVVIYGTDRWATG
notes: Galanthus nivalis L. (snowdrop) lectin LECGNA2, expressed from the full-length cDNA (570 bp); the purified product is a band corresponding to mature GNA (about 12.0 kDa); The exact C-terminal end of the processed protein in sugarcane is not determined; native GNA 12,054.41 Da theoretical; also called sugarcane GNA
B2: recombinant GNA109 (G. nivalis lectin LECGNA2 with four additional amino acids, Thr106 His107 Thr108 Gly109, at the C-terminus of the mature protein) (natural protein, Galanthus nivalis)
chain: DNILYSGETLSTGEFLNYGSFVFIMQEDCNLVLYDVDKPIWATNTGGLSRSCFLSMQTDGNLVVYNPSNKPIWASNTGGQNGNYVCILQKDRNVVIYGTDRWATGTHTG
notes: numbers count on: the mature protein; four additional amino acids Thr106 His107 Thr108 Gly109 at the C-terminus of the mature protein; Theoretical mass printed: 12,051.42 Da; source: synthesized (GenScript); purified using immobilized mannose

Key:
[1] = target: the molecule itself; test: SEC; TSKgel G3000SW xL, HPLC; 50 mM sodium phosphate, 0.3 M NaCl, pH 7.0; non-reducing conditions; 1.0 mL/min; absorbance at 220 and 280 nm; mass standards 6.5-675 kDa
[2] = target: P30617; test: as above
[3] = target: the molecule itself; test: MALDI-TOF MS; non-reducing conditions; sinapinic acid matrix; linear delayed positive ion mode; mass range 4,500-50,000 Da

| Protein | stoichiometry N [1] | purity (relative peak abundance) of the tetramer [2] | stoichiometry N [3] |
| --- | --- | --- | --- |
| B1 | 4 | The purities of the recombinant GNA monomer and tetramer were 65.5% and 24%, respectively | 2 and 3 |
| B2 |  |  | 2 and 3 |
